This series in a line: yeast display, Sf9 membrane polyspecificity reagent, FACS + sequencing; frameworks hold sequencing errors. Put shortly: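 Synthetic nanobody libraries on Saccharomyces cerevisiae BJ5465 were galactose-induced for 36–48 hours, stained 1 hour at 4 °C with 10% biotinylated, detergent-solubilized Sf9 membrane reagent and enriched on streptavidin microbeads. FACS then separated cells into low and high (top ~1%) gates by anti-HA (expression) and streptavidin (reagent binding) fluorescence. Genes were colony-PCR amplified, MiSeq 2 × 250 sequenced and CDR-length filtered. A clone's polyreactivity label is that of its gate of origin.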
Consider “QVQLVESGGGLVQAGGSLRLSCAASGITFYPYAMGWYSQAPGKEWELVADITWSGGSTYYADSVKGRFTISRDNAKNTVYLQMNSLKPEDSAVYYCNRKSYRLRSKVRGQYLLGYDWGQGTQVTVSS”, for which the “polyreactivity (PSR sort gate)” value is reported as “high polyreactivity”.

With “QVQLVESGGGLVQAGGSLRLSCAASGITFYPYTLGWYRQAPGKERELVASISTSGTNYADSVKGRFTISRDNAKNTVYLQMNSLKPEDTAVYYCAADIWSYYRSTHVDSWGQGTQVTVSS”, the “polyreactivity (PSR sort gate)” value was “low polyreactivity”. As to “QVQLVESGGGLVQAGGSLRLSCAASGITFYQYAMGWSRQAPGKERELVAAIRWSGSSTYYADSVKGRFTISRDNAKNTVYLQMNSLKPEDTAVYYCAAAPGGWPGEYWGQGTQVTVSS”, the “polyreactivity (PSR sort gate)” value is given as “low polyreactivity”. For “QVQLVESGGGLVQAGGSLRLSCAASGITFYQYVMGRYRQAPGKERELVAAISTSGDSTYYADYVKGRFTISRDNAKNTVYLQINSLKTEDTAVYYCATYWSGHYYYWGQGTQVTVSS” the value was “high polyreactivity”; for “QVQLVESGGGLVQAGGSLRLSCAASGITFYRNAMGWYRKAPGKERELLAAISWSGGRTYYADSVKGRFTISRDNAKNTVYLQMNSLKPEDTAVYYCAASSWSSYYRPKYYWGQGTQVTVSS”, “high polyreactivity”. The result for “QVQLVESGGGLVQAGGSLRLSCAASGITFYRNARGWYRQAPGKERELVAAITSGTRTYYADSVKGRFTISRDNAKNTVYLQMNSLKPEDTAVYYCAKRGPYYNDDEYYCGQGTQVTVSS” reads “low polyreactivity”. The result for “QVQLVESGGGLVQAGGSLRLSCAASGITFYRYAMGWSRQAPGKERELVAAIRRAGSTYYADSVKGRFTISRDIAKNSVYLQMNSLKPEDTAVYYCNARYGIGMNYWGQGTHVTVSS” reads “high polyreactivity”. Turning to “QVQLVESGGGLVQAGGSLRLSCAASGITFYRYAMGWYRQAPGKEREFVAAITWGSTYYADSVKGRFTISRDNAKNTVYLQMNSLTPEDTAVYYCNADWGGFWQHRELDSWGQGTQVTVSS”, the “polyreactivity (PSR sort gate)” value is listed as “low polyreactivity”.

Take “QVQLVESGGGLVQAGGSLRLSCAASGITFYRYAMGWYRQAPGKERELVAAISSRGGRTYYADSVKGRFTISRDNAKNTVYLQMNSLKPEDTAVYYCAKGGKVGSTLEYDYWGQGTQVTVSS”: the “polyreactivity (PSR sort gate)” value is given as “high polyreactivity”. Consider “QVQLVESGGGLVQAGGSLRLSCAASGITFYRYAMGWYRQAPGKERELVAAISYRGGRTFYADSVKGRFTISRDNAKNTVYLQMNSLKPEDTAVYYCNARDYYEKMDYWGQGTQVTVSS”, for which the “polyreactivity (PSR sort gate)” value was “high polyreactivity”. Turning to “QVQLVESGGGLVQAGGSLRLSCAASGITFYRYAMGWYRQARGKERELVADITSSGGSTYYADSVKGRFTISRDNAKNTVYLQMNSLKPEDTAVYYFNAAYYFSRIVYPYDYWGQGTQVTVSS”, the “polyreactivity (PSR sort gate)” value is on record as “high polyreactivity”. In the case of “QVQLVESGGGLVQAGGSLRLSCAASGITFYSNAMGWYRQAPGKERELVATITRGGSTYYADSVKGRFTISRDNAKNTVYLQMNSLKPEDTAVYYCAADYSYRGREYGYWGQGTQVTVSS”, the “polyreactivity (PSR sort gate)” value is listed as “low polyreactivity”.

With “QVQLVESGGGLVQAGGSLRLSCAASGITFYSYAMGWYRQAPGKEREFVAAINWRGGNTYYADSVKGRFTISRDNAKNTVYLQMNSLKPEDTAFYYCARDGIYAYWVDPYDYWGQGTQVTVSS”, the “polyreactivity (PSR sort gate)” value was “high polyreactivity”. “QVQLVESGGGLVQAGGSLRLSCAASGITFYTYAMGWYRQAPGKERELVAAISTGGSTYYADSVKGRFTISRDNAKNTVYLQMNSLKPEDTAVYYCAARTFSYPRRAYYYWGQGTQVTVSS”: the “polyreactivity (PSR sort gate)” value is “high polyreactivity”. For “QVQLVESGGGLVQAGGSLRLSCAASGITFYTYAMGWYRQAPGKERELVAAITWRGGRTSYADSVKGRFTISRDNAKNTVYLQMNSLKPEDTAVYYCAKEAHPPWTSQDVFRSYDYWGQGTQVTVSS” the value was “low polyreactivity”.

On to “QVQLVESGGGLVQAGGSLRLSCAASGITFYVNAMGWYRQAPGKERELVAAISRSGGSTYYADSVKGRFTISRDNAKNTVYLQMNSLKPEDTAVYYCNKEDYGLYPYYVSVGYDYWGQGTQVTVSS”, for which the “polyreactivity (PSR sort gate)” value is recorded as “low polyreactivity”.

For “QVQLVESGGGLVQAGGSLRLSCAASGITFYVNTKGWYRQAPGKEREVVAAIDWTDGGTYYADSVKGRFTISRDNAKNTVYLQMNSLKPEDTAVYYCALDYYWDIIGLYGYLAYDLDYWGQGTQVTVSS”, the “polyreactivity (PSR sort gate)” value is “low polyreactivity”. The result for “QVQLVESGGGLVQAGGSLRLSCAASGITFYVYAMGSYTQAPGKEREFVAAISTRDGTTYADSEKGRFTISRDNAKNPFYLEMNSLKPVDTAVDYCAAAYYYDGQQGDFDYWGQGTQVTVSS” reads “low polyreactivity”; that for “QVQLVESGGGLVQAGGSLRLSCAASGITFYVYAMGWYRQAPGKERELVAAISRRGGSTSYADSVKGRFTISRDNAKNTVYLQMNSLKPEDTAVYYCAKDTTYYQVYGYGYDYWGQGTQVTVSS”, “low polyreactivity”; that for “QVQLVESGGGLVQAGGSLRLSCAASGITFYVYAMGWYRQPPGTERDLVAAISRRGGSTSYADSVKGRFTISRDTAKNTVYLEMNSLKPEDTAVDYCAAGPFYGGIVRRYDYWGQGTQVTVSS”, “low polyreactivity”. For “QVQLVESGGGLVQAGGSLRLSCAASGITFYVYTMGWYRQAPGKERELVAAINGSGGSTNYADSVKGRFTISRDNAKNTVFLQMNSLKPEDTAVYYCAADWSLRLYDYWGQGTQVTVSS” the value was “low polyreactivity”; for “QVQLVESGGGLVQAGGSLRLSCAASGITFYYNVMGWYRQAPGKERELVASITSGGSTYYADSVKGRFTISRDNAKNTVYLQMNSLKPEDTAVSYCNKDHALYVDFSYDYWGQGTQVTVSS”, “low polyreactivity”; for “QVQLVESGGGLVQAGGSLRLSCAASGITFYYYAMGWYRQAPGKERELVAAISRSGGSTYYADSVKGRFTISRDNAKNTVYLQMNSLKPEDTAVYYCANRKGGTLYNYWGQGTQVTVSS”, “high polyreactivity”. The result for “QVQLVESGGGLVQAGGSLRLSCAASGITFYYYAMGWYRQAPGKERELVARISYGGGRTYYADSVKGRFTISRDNAKNTVYLQMNSLKPEDTAVYYCAARQGYRSYRRYDYWGQGTQVTVSS” reads “high polyreactivity”; that for “QVQLVESGGGLVQAGGSLRLSCAASGITFYYYAMGWYRQAPGKERELVASIDNSGGSTYYADSVKGRFTISRDNEKNTVYLQMHSLKPEDTAVYFCAAVSRYYFLGVAFLDDYWGQGTLVTVSS”, “high polyreactivity”.

With “QVQLVESGGGLVQAGGSLRLSCAASGITFYYYTMGWYRQAPGKERELVAGITRGGRTYYADSVKGRFTISRDNAKNTVYLQMNSLKPEDTAVYYCAADYSYIYGFDYWGQGTQVTVSS”, the “polyreactivity (PSR sort gate)” value was “low polyreactivity”.

In the case of “QVQLVESGGGLVQAGGSLRLSCAASGITIAGYAMGWYRQAPGKERELVAAITIGGRTYYADSVKGRFTISRDNAKNTVYLQMNSLKPVDTAVYYCAAARGFWWYDYWGQGTQVTVSS”, the “polyreactivity (PSR sort gate)” value is recorded as “high polyreactivity”. The result for “QVQLVESGGGLVQAGGSLRLSCAASGITIFTYAMGWYRQAPGKERELVAAISGSGGSTYYADSVKGRFTISRDNAKNTVYLQMNSLKPEDTAVYSCAAEYTYGSPYDYWGQGTQVTVSS” reads “low polyreactivity”; that for “QVQLVESGGGLVQAGGSLRLSCAASGITIQGYAMGWYRQAPGKERELVAAINDSGSSTYYADSVKGRFTISRDNAKNTFYLQMNSLKPEYTAVYYCAAYLWLWGQGTQVTVSS”, “low polyreactivity”; that for “QVQLVESGGGLVQAGGSLRLSCAASGITIRRYGMGWYRQAPGKERELVATITRDGRTYYADSVKGRFTISRDNAKNTVYLQMNSLKPEDTAVYYCARPARYSYGDGYWGQGTQVTVSS”, “low polyreactivity”.

Regarding “QVQLVESGGGLVQAGGSLRLSCAASGITIRYYAMGWYRQAPGKERELVAAITRRGGSTSYADSVKGRFTISRDNAKNTVYLQMNSLKPEDTAVYYCNARKYTNQATYDYWGQGTQVTVSS”, the “polyreactivity (PSR sort gate)” value is reported as “high polyreactivity”. Regarding “QVQLVESGGGLVQAGGSLRLSCAASGITITRYDMGWYRQAPGKERELVAAINWSGGRTYYADSVKGRFTISRDNAKYTVYLQMNSLKPEDTAVYYCNRALKYRRRDYWGQGTQVTVSS”, the “polyreactivity (PSR sort gate)” value was “high polyreactivity”.

Consider “QVQLVESGGGLVQAGGSLRLSCAASGITITTYAMGWYRQAPGKERELVAAISSASSTYYADSVKGRFTISRDNAKNTVYLQMNSLKPEDTAVYYCAARVFKKYRPSGRYYYWGQGTQVTVSS”, for which the “polyreactivity (PSR sort gate)” value is on record as “high polyreactivity”. For “QVQLVESGGGLVQAGGSLRLSCAASGITIVNYVMGWYRKAPGKERELVAAISIGGGTYYADSVKGRFTISRDNAKNTVYLQINSLKPEDTAVYYCNASYGGLSFYIGVYVTGYDYWGQGTQVTVSS” the value was “low polyreactivity”; for “QVQLVESGGGLVQAGGSLRLSCAASGITIVRYAMGWYRQAPGKERELVAAINRSGGSTYYADSVKGRFTISRDNAKNTVYLQMNSLKPEDTAVYYCAARLYGKYDPPGYYYWGQGTQVTVSS”, “high polyreactivity”; for “QVQLVESGGGLVQAGGSLRLSCAASGITIYKYAMGWSRQAPGKERELVAVISRSGGSTYYADSVKGRFTISRDNAKNTVYLQMNSLKPEDTAVYYCAADYRYPRQSKYYYWGQGTQVTVSS”, “high polyreactivity”. With “QVQLVESGGGLVQAGGSLRLSCAASGITIYNYAMGWYRQAPGKERELVAAITRSGGSTYYADSVKGRFTISRDNAKNTVYLQMNSLKPEDTAVYYCATGKYWRYDYWGQGTQVTVSS”, the “polyreactivity (PSR sort gate)” value is “high polyreactivity”. On to “QVQLVESGGGLVQAGGSLRLSCAASGITIYYNAMGWYRQAPGKARELVAAITQSGGSTFYADSVKGRFTISRDNAKNTVYLQMNSLKPEDTAVYYWGQGTQVTVSS”, for which the “polyreactivity (PSR sort gate)” value was “low polyreactivity”.

Consider “QVQLVESGGGLVQAGGSLRLSCAASGITLDRYDMGWYRQAPGKERELVAAISRSGVRTYYADSVKGRFTISRDNAKNTVYLQMNSLKPEDTAVYYCNKGYARRYASGYDYWGQGTQVTVSS”, for which the “polyreactivity (PSR sort gate)” value was “high polyreactivity”. For “QVQLVESGGGLVQAGGSLRLSCAASGITLDYYAMGWYRQAPGKERELVASITSGGSTNYADSVKGRFTISRDNAKNTVYLQMNSLKPVDTAVYYCARDVNYPGSEGDYWGQGTQVTVSS” the value was “low polyreactivity”; for “QVQLVESGGGLVQAGGSLRLSCAASGITLEDYDMGWYRQAPGKERELVAAITSGGSTNYADSVKGRFTISRDNAKNTVYLQMNSMKPEDTAVYYCNADFAIRWWYYFGSGYDYWGQGTQVTVSS”, “low polyreactivity”.

The values are drawn from the nanobody polyreactivity screen of Harvey et al. (2022).
